Where two headings read alike, the source gives them in different places.

In experiment [1] the target is T1, human FcRn (soluble human FcRn complexed with β2-microglobulin) (human, UniProt P61769 21-119).
T1 construct: also called hFcRn
Briefly: Biacore SPR, pH 7.0, 25 C; antibody captured by Protein L, human FcRn as analyte. Background: In SPR one partner is held on a chip, and binding of the other changes the refractive index at the surface.

For experiment [2], the target named is T2, human FcγRIIIa(F) (human, UniProt P08637 17-208, limits assumed).
T2 construct: also called hFcgRIIIa(F); hFcgRIIIa
Briefly: SPR (Biacore), antibody captured on Protein L, human FcγR as analyte, pH 7.4, 25 C.

The target of experiment [3] is T2, human FcγRIIIa(F). Described as above. This is another data set of the same source.
Experiment [4] has as its target T3, human FcRn (soluble human FcRn complexed with beta2-microglobulin) (human, UniProt P61769 21-119).
T3 construct: also called hFcRn
The experiment can be described thus: SPR (Biacore), pH 7.0, 25 C, antibody captured by Protein L, human FcRn as analyte.

Experiment [5] deals with T4, human FcRn (human).
T4 construct: Soluble human FcRn complexed with beta2-microglobulin; also called hFcRn; soluble human FcRn complexed with β2-microglobulin
The experiment can be described thus: SPR (Biacore), pH 7.0, 25 C; antibody captured on Protein L, human FcRn injected.

Experiment [6] has as its target T4, human FcRn. The description is as above. This is another data set of the same source.

T4 sequence (chain, as listed by the source limits assumed, chain 1 of 2): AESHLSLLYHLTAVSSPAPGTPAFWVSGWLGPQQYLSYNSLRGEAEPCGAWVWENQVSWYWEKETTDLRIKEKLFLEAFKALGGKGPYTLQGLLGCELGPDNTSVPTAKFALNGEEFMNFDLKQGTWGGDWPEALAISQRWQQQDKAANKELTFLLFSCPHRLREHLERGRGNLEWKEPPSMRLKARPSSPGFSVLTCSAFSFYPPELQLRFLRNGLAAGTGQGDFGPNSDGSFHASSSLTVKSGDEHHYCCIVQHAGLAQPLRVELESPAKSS
T4 sequence (P61769 21-119 limits assumed, chain 2 of 2): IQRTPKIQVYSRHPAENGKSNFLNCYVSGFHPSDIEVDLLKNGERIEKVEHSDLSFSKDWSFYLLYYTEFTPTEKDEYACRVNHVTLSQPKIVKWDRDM
T2 sequence (P08637 other isoform, or with tags, fused parts or gaps limits assumed): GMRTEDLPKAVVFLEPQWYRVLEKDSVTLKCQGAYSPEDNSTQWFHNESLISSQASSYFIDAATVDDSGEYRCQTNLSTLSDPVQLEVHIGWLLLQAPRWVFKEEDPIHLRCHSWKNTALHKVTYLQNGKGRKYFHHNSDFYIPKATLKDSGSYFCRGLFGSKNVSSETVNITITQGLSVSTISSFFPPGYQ
T3 sequence (chain, as listed by the source limits assumed, chain 1 of 2): as the sequence (chain, as listed by the source limits assumed, chain 1 of 2) above
T3 sequence (P61769 21-119 limits assumed, chain 2 of 2): as the sequence (P61769 21-119 limits assumed, chain 2 of 2) above
T1 sequence (chain, as listed by the source limits assumed, chain 1 of 2): as the sequence (chain, as listed by the source limits assumed, chain 1 of 2) above
T1 sequence (P61769 21-119 limits assumed, chain 2 of 2): as the sequence (P61769 21-119 limits assumed, chain 2 of 2) above

B1: IgG1-F185 (antibody, name in EU numbering)
heavy: QVQLQESGPGLVKPSETLSLTCAVSGHSISHDHAWSWVRQPPGEGLEWIGFISYSGITNYNPSLQGRVTISRDNSKNTLYLQMNSLRAEDTAVYYCARSLARTTAMDYWGEGTLVTVSSASTKGPSVFPLAPSSKSTSGGTAALGCLVKDYFPEPVTVSWNSGALTSGVHTFPAVLQSSGLYSLSSVVTVPSSSLGTQTYICNVNHKPSNTKVDKKVEPKSCDKTHTCPPCPAPELLGGPSVFLFPPKPKDTLWISRTPEVTCVVVDVSHEDPEVKFNWYVDGVEVHNAKTKPREEQYNSTYRVVSVLTVLHQDWLNGKEYKCKVSNKALPAPVEKTISKAKGQPREPQVYTLPPSRDELTKNQVSLTCLVKGFYPSDIAVEWESNGQPENNYKTTPPVLDSDGSFFLYSKLTVDKSRWQQGNVFSCSVMHEALHYHYTQKSLSLSP
light: not shown
notes: VH3-IgG1 Fc variant; EU numbering
Broadly, the Kd is the equilibrium constant for the complex coming apart. As for B1, in experiment [1], binding was characterised by a dissociation constant (Kd) of 260 nM.

B2: VH3/L(WT)-IgG1-F698 (antibody, name in EU numbering)
heavy: QVQLQESGPGLVKPSETLSLTCAVSGHSISHDHAWSWVRQPPGEGLEWIGFISYSGITNYNPSLQGRVTISRDNSKNTLYLQMNSLRAEDTAVYYCARSLARTTAMDYWGEGTLVTVSSASTKGPSVFPLAPSSKSTSGGTAALGCLVKDYFPEPVTVSWNSGALTSGVHTFPAVLQSSGLYSLSSVVTVPSSSLGTQTYICNVNHKPSNTKVDKKVEPKSCDKTHTCPPCPAPELLGGPSVFLFPPKPKDTLYISRTPEVTCVVVDVSHEDPEVKFNWYVDGVEVHEAKTKPREEQYNSTYRVVSVLQVLHADWLNGKEYKCKVSNKALPAPIEKTISKAKGQPREPQVYTLPPSRDELTKNQVSLTCLVKGFYPSDIAVEWESNGQPENNYKTTPPVLDSDGSFFLYSKLTVDKSRWQQGNVFSCSVMHEALHYHYTQKSLSLSP
light: not shown
notes: The positions are EU numbering, not positions on the entry; copies: 2 + 2
For the molecule B2, the “BINDING AMOUNT (RU)” value with human FcγRIIIa(F) [2] and with human FcγRIIIa(F) [3] was 55.9 RU throughout.

B3: IgG1-F1039 (antibody, name in EU numbering)
heavy: QVQLQESGPGLVKPSETLSLTCAVSGHSISHDHAWSWVRQPPGEGLEWIGFISYSGITNYNPSLQGRVTISRDNSKNTLYLQMNSLRAEDTAVYYCARSLARTTAMDYWGEGTLVTVSSASTKGPSVFPLAPSSKSTSGGTAALGCLVKDYFPEPVTVSWNSGALTSGVHTFPAVLQSSGLYSLSSVVTVPSSSLGTQTYICNVNHKPSNTKVDKKVEPKSCDKTHTCPPCPAPELKGGDKVFLFPPKPKDTLYISRTPEVTCVVVDVSHEDPEVKFNWYVDGVEVHNAKTKPREEQYNSTYRVVSVLTVLHQDWLNGKEYKCKVSNKALPAPIEKTISKAKGQPREPQVYTLPPSRDELTKNQVSLTCLVKGFYPSDIAVEWESNGQPENNYKTTPPVLDSDGSFFLYSKLTVDKSRWQQGNVFSCSVMHEALHYHVTQKSLSLSP
light: not shown
B3 gave a Kd in experiment [4] of 130 nM.

B4: IgG1-F1031 (antibody, name in EU numbering)
heavy: QVQLQESGPGLVKPSETLSLTCAVSGHSISHDHAWSWVRQPPGEGLEWIGFISYSGITNYNPSLQGRVTISRDNSKNTLYLQMNSLRAEDTAVYYCARSLARTTAMDYWGEGTLVTVSSASTKGPSVFPLAPSSKSTSGGTAALGCLVKDYFPEPVTVSWNSGALTSGVHTFPAVLQSSGLYSLSSVVTVPSSSLGTQTYICNVNHKPSNTKVDKKVEPKSCDKTHTCPPCPAPELLAGPDVFLFPPKPKDVLYISRTPEVTCVVVDVSHEDPEVKFNWYVDGVEVHNAKTKPREEQYNSTYRVVSVLQVLHADWLNGKEYKCKVSNKALPAPEEKTISKAKGQPREPQVYTLPPSRDELTKNQVSLTCLVKGFYPSDIAVEWESNGQPENNYKTTPPVLDSDGSFFLYSKLTVDKSRWQQGNVFSCSVMHEALHYHVTQKSLSLSP
light: not shown
As to B4, in experiment [4], the Kd was 53 nM.

B5: IgG1-F197 (antibody, name in EU numbering)
heavy: QVQLQESGPGLVKPSETLSLTCAVSGHSISHDHAWSWVRQPPGEGLEWIGFISYSGITNYNPSLQGRVTISRDNSKNTLYLQMNSLRAEDTAVYYCARSLARTTAMDYWGEGTLVTVSSASTKGPSVFPLAPSSKSTSGGTAALGCLVKDYFPEPVTVSWNSGALTSGVHTFPAVLQSSGLYSLSSVVTVPSSSLGTQTYICNVNHKPSNTKVDKKVEPKSCDKTHTCPPCPAPELLGGPSVFLFPPKPKDTLMISRTTEVTCVVVDVSHEDPEVKFNWYVDGVEVHNAKTKPREEQYNSTYRVVSVLQVLHQDWLNGKEYKCKVSNKALPAPIEKTISKAKGQPREPQVYTLPPSRDELTKNQVSLTCLVKGFYPSDIAVEWESNGQPENNYKTTPPVLDSDGSFFLYSKLTVDKSRWQQGNVFSCSVLHEALHYHYTQKSLSLSP
light: not shown
notes: as for B1
In the case of B5, the dissociation constant Kd in experiment [1] is 33 nM.

B6: IgG1-F770 (antibody)
heavy: QVQLQESGPGLVKPSETLSLTCAVSGHSISHDHAWSWVRQPPGEGLEWIGFISYSGITNYNPSLQGRVTISRDNSKNTLYLQMNSLRAEDTAVYYCARSLARTTAMDYWGEGTLVTVSSASTKGPSVFPLAPSSKSTSGGTAALGCLVKDYFPEPVTVSWNSGALTSGVHTFPAVLQSSGLYSLSSVVTVPSSSLGTQTYICNVNHKPSNTKVDKKVEPKSCDKTHTCPPCPAPELLGGPSVFLFPPKPKDTLYISRAPEVTCVVVDVSHEDPEVKFNWYVDGVEVHNAKTKPREEQYNSTYRVVSVLTVLHQDWLNGKEYKCKVSNKALPAPIEKTISKAKGQPREPQVYTLPPSRDELTKNQVSLTCLVKGFYPSDIAVEWESNGQPENNYKTTPPVLDSDGSFFLYSKLTVDKSRWQQGNVFSCSVMHEALHYHYTQKSLSLSP
light: not shown
notes: Substitutions by EU numbering; copies: 2 + 2
In turn, B6 came in with a Kd with human FcRn [5] of 300 nM.

B7: IgG1-F755 (antibody)
heavy: QVQLQESGPGLVKPSETLSLTCAVSGHSISHDHAWSWVRQPPGEGLEWIGFISYSGITNYNPSLQGRVTISRDNSKNTLYLQMNSLRAEDTAVYYCARSLARTTAMDYWGEGTLVTVSSASTKGPSVFPLAPSSKSTSGGTAALGCLVKDYFPEPVTVSWNSGALTSGVHTFPAVLQSSGLYSLSSVVTVPSSSLGTQTYICNVNHKPSNTKVDKKVEPKSCDKTHTCPPCPAPELLGGDSVFLFPPKPKDSLYISRTPEVTCVVVDVSHEDPEVKFNWYVDGVEVHNAKTKPREEQYNSTYRVVSVLTVLHQDWLNGKEYKCKVSNKALPAPIEKTISKAKGQPREPQVYTLPPSRDELTKNQVSLTCLVKGFYPSDIAVEWESNGQPENNYKTTPPVLDSDGSFFLYSKLTVDKSRWQQGNVFSCSVMHEALHYHYTQKSLSLSP
light: not shown
notes: as for B6
B7 showed a Kd with human FcRn [5] of 350 nM.

B8: IgG1-F791 (antibody)
heavy: QVQLQESGPGLVKPSETLSLTCAVSGHSISHDHAWSWVRQPPGEGLEWIGFISYSGITNYNPSLQGRVTISRDNSKNTLYLQMNSLRAEDTAVYYCARSLARTTAMDYWGEGTLVTVSSASTKGPSVFPLAPSSKSTSGGTAALGCLVKDYFPEPVTVSWNSGALTSGVHTFPAVLQSSGLYSLSSVVTVPSSSLGTQTYICNVNHKPSNTKVDKKVEPKSCDKTHTCPPCPAPELLGGPSVFLFPPKPKDTLYISRTPEVTCVVVDVSHEDPEVKFNWYVDGVEVHNAKTKPREEQYNSTYRVVSVLTVLHQDWLFGKEYKCKVSNKALPAPIEKTISKAKGQPREPQVYTLPPSRDELTKNQVSLTCLVKGFYPSDIAVEWESNGQPENNYKTTPPVLDSDGSFFLYSKLTVDKSRWQQGNVFSCSVMHEALHYHYTQKSLSLSP
light: not shown
notes: as for B6
On to B8, for which, in the experiment with human FcRn [6], the dissociation constant Kd is 440 nM.

B9: VH3/L(WT)-IgG1-F763 (antibody, name in EU numbering)
heavy: QVQLQESGPGLVKPSETLSLTCAVSGHSISHDHAWSWVRQPPGEGLEWIGFISYSGITNYNPSLQGRVTISRDNSKNTLYLQMNSLRAEDTAVYYCARSLARTTAMDYWGEGTLVTVSSASTKGPSVFPLAPSSKSTSGGTAALGCLVKDYFPEPVTVSWNSGALTSGVHTFPAVLQSSGLYSLSSVVTVPSSSLGTQTYICNVNHKPSNTKVDKKVEPKSCDKTHTCPPCPAPELRGGPKVFLFPPKPKDTLYISRTPEVTCVVVDVSHEDPEVKFNWYVDGVEVHEAKTKPREEQYNSTYRVVSVLQVLHADWLNGKEYKCKVSNKALPAPIEKTISKAKGQPREPQVYTLPPSRDELTKNQVSLTCLVKGFYPSDIAVEWESNGQPENNYKTTPPVLDSDGSFFLYSKLTVDKSRWQQGNVFSCSVMHEALHYHYTQKSLSLSP
light: not shown
notes: as for B2
For the molecule B9, the “BINDING AMOUNT (RU)” value with human FcγRIIIa(F) [2] is -2.9 RU.

B10: IgG1-F802 (antibody)
heavy: QVQLQESGPGLVKPSETLSLTCAVSGHSISHDHAWSWVRQPPGEGLEWIGFISYSGITNYNPSLQGRVTISRDNSKNTLYLQMNSLRAEDTAVYYCARSLARTTAMDYWGEGTLVTVSSASTKGPSVFPLAPSSKSTSGGTAALGCLVKDYFPEPVTVSWNSGALTSGVHTFPAVLQSSGLYSLSSVVTVPSSSLGTQTYICNVNHKPSNTKVDKKVEPKSCDKTHTCPPCPAPELLGGPSVFLFPPKPKDTLYISRTPEVTCVVVDVSHEDPEVKFNWYVDGVEVHNAKTKPREEQYNSTYRVVSVLTVLHQDWLVGKEYKCKVSNKALPAPIEKTISKAKGQPREPQVYTLPPSRDELTKNQVSLTCLVKGFYPSDIAVEWESNGQPENNYKTTPPVLDSDGSFFLYSKLTVDKSRWQQGNVFSCSVMHEALHYHYTQKSLSLSP
light: not shown
notes: as for B6
In turn, B10 gave a Kd in the experiment with human FcRn [6] of 330 nM.

B11: VH3/L(WT)-IgG1-F699 (antibody, name in EU numbering)
heavy: QVQLQESGPGLVKPSETLSLTCAVSGHSISHDHAWSWVRQPPGEGLEWIGFISYSGITNYNPSLQGRVTISRDNSKNTLYLQMNSLRAEDTAVYYCARSLARTTAMDYWGEGTLVTVSSASTKGPSVFPLAPSSKSTSGGTAALGCLVKDYFPEPVTVSWNSGALTSGVHTFPAVLQSSGLYSLSSVVTVPSSSLGTQTYICNVNHKPSNTKVDKKVEPKSCDKTHTCPPCPAPELLGGPKVFLFPPKPKDTLYISRTPEVTCVVVDVSHEDPEVKFNWYVDGVEVHEAKTKPREEQYNSTYRVVSVLQVLHADWLNGKEYKCKVSNKALPAPIEKTISKAKGQPREPQVYTLPPSRDELTKNQVSLTCLVKGFYPSDIAVEWESNGQPENNYKTTPPVLDSDGSFFLYSKLTVDKSRWQQGNVFSCSVMHEALHYHYTQKSLSLSP
light: not shown
notes: as for B2
For the molecule B11, the “BINDING AMOUNT (RU)” value in the experiment with human FcγRIIIa(F) [3] was -2 RU.

Values taken from patent US20140105889A1 (published 2014).
